According to patent US6800470B2, “Mammalian sphingosine kinase type 2 isoforms, cloning, expression and methods of use thereof” (Sankyo Company, Ltd., priority 2000, dated 2004):
Substitutions are numbered along the chain they refer to.

B1: mSPHK2 (Mus musculus) (protein)
chain: MAPPPLLPVAASTPILHGEFGSYPANGPRFALTLTTQALHIQRLRPKPEARPRDGLVSLDEVSGCGTLQSRSPEDTAAYFCIYTYPRGRRGGRRRATRTFRADGATTYEENRAEAQRWATALTCLLRGVPLSGDQEITPELLPRKPRLLILVNPFGGRGLAWQRCMDHVVPMISEAGLSFNLIQTERQNHARELVQGLSLSEWEGIVTVSGDGLLYEVLNGLLDRPDWEDAVRMPIGVLPCGSGNALAGAVNHHGGFEQVVGVDLLLNCSLLLCRGGSHPLDLLSVTLASGSRCFSFLSVAWGFLSDVDIHSERFRALGSARFTLGAVLGLASLHTYRGRLSYLPATTEPALPIPGHSLPRAKSELVLAPAPAPAATHSPLHRSVSDLPLPLPQPALVSPGSPEPLPDLSLNGGGPELTGDWGGAGDAPLSPDPLLPSSPNALKTAQLSPIAEGPPEMPASSGFLPPTHSAPEASTWGPVDHLLPPLGSPLPQDWVTIEGEFVLMLGILPSHLCADLMAAPHARFDDGVVHLCWVRSGISRAALLRILLAMEHGNHFSLGCPHLGYAAARAFRLEPLTPRGLLTVDGELVEYGPIQAQVHPGLATLLTGPAGQKPQA
notes: The open reading frames of mSPHK2 and hSPHK2 encode polypeptides of 617 and 618 amino acids, respectively; made in house; host or cells: HEK293 (ATCC CRL-1573), transient transfection; unpurified cytosol or whole lysate
B2: mSPHK2: murine sphingosine kinase type 2, polypeptide of 617 amino acids (SEQ ID NO 12) (protein)
chain: B1 chain with N252S, P510T, L548F

Key:
[1] = substrate: CCCCCCCCCCCCC/C=C/[C@@H](O)[C@@H](N)CO; assay: SPHK activity assay with recombinant mSPHK2 (cytosol/lysates of transfected HEK293 cells, [g-32P]ATP, TLC); assay type: biochemical, mouse; settings: other: recombinant SPHK2
Method: HEK293 cells were seeded at 6×10^5 per well in poly-L-lysine coated 6 well plates. […] SPHK activity was determined in the presence of sphingosine, prepared as a complex with 4 mg/ml BSA, and [g-32P] […] 32P-SPP was separated by TLC and quantified with a phosphoimager as previously described.

HEK293 cells [2] = assay: Mass levels of SPP in HEK293 cells after transfection with SPHK2; assay type: cell-based, human; settings: HEK 293 cells after transfection
Method: Mass levels of SPP in HEK293 cells transfected with an empty vector (open bars) or with mSPHK2 (filled bars) or with hSPHK2 (hatched bars) were measured as described hereinbelow. The data are expressed as pmol/nmol phospholipid.
Cells were washed with PBS and scraped in 1 ml of methanol containing 2.5 μl concentrated HCl. Lipids were extracted by adding 2 ml chloroform/1M NaCl (1:1, v/v) and 100 μl 3N NaOH and phases separated. The basic aqueous phase containing SPP, and devoid of sphingosine, ceramide, and the majority of phospholipids, was transferred to a siliconized glass tube. The organic phase was re-extracted with 1 ml methanol/1M NaCl (1:1, v/v) plus 50 μl 3N NaOH, and the aqueous fractions were combined. Mass measurement on SPP in the aqueous phase and total phospholipids in the organic phase were measured exactly as described in Edsall, L. C., Pirianov, G. G., and Spiegel, S., J. Neurosci., 17, (1997) 6952-6960; Edsall, L. C., and Spiegel, S., Anal. Biochem., 272, (1999) 80-86).

mSPHK2 = molecular target: T1, mSPHK2 (Mus musculus, UniProt Q9JIA7); assay: SPHK activity assay with recombinant mSPHK2 (cytosol/lysates of transfected HEK293 cells, [g-32P]ATP, TLC); assay type: biochemical; settings: cytosolic activity, kinase buffer of adjusted pH
T1 construct: The open reading frames of mSPHK2 and hSPHK2 encode polypeptides of 617 and 618 amino acids, respectively; made in house; host or cells: HEK293 (ATCC CRL-1573), transient transfection; unpurified cytosol or whole lysate
T1 sequence (Q9JIA7 1-617): B1 chain
Method: Lanes: 1, D-erythro-sphingosine (“D-erythro-Sph”); 2, D-erythro-dihydrosphingosine (“D-erythro-DHS”); 3, D, L-threo-DHS; 4, N,N-dimethylsphingosine (“DMS”); 5, C2-ceramide; 6, C16-ceramide; 7, diacylglycerol; 8, phosphatidylinositol; 9, phytosphingosine. Data are expressed as percentage of phosphorylation of D-erythro-Sph.
SPHK activity in HEK293 cell lysates after transfection as in FIG. 4A was measured with 10 μM D-erythro-sphingosine in the presence of increasing concentrations of DMS.
SPHK activity was measured with varying concentrations of D-erythro-sphingosine in the absence (open circles) or presence of 10 μM (filled squares) or 20 μM DMS (filled triangles).
FIG. 4D are Lineweaver-Burk plots.
In FIGS. 5B and 5C, the SPHK activity in HEK293 cell lysates was measured 24 hours after transfection with mSPHK1 (FIG. 5B) or mSPHK2 (FIG. 5C) in the absence or presence of increasing concentrations of NaCl (open squares) or KCl (filled circles).
FIG. 5E are Lineweaver-Burk plots of data from FIG. 5D.
HEK293 cells were transfected with mSPHK1a (open circles) or mSPHK2 (filled circles) and the activities of each in cell lysates were measured after 24 hours in the presence of the indicated concentrations of Triton X-100 (FIG. 6A) or BSA (FIG. 6B).
HEK293 cells were transfected with mSPHK1a (circles) or mSPHK2 (triangles) and the activities of each in cell lysates were measured after 24 hours in the presence of the indicated concentrations of phosphatidylserine (filled symbols) or phosphatidylcholine (open symbols). Data are expressed as percentage of control activity measured without any additions.
(§1) Human embryonic kidney cells (HEK293, ATCC CRL-1573) and NIH 3T3 fibroblasts (ATCC CRL-1658) were cultured as described in Olivera, A., Kohama, T., Edsall, L. C., Nava, V., Cuvillier, O., Poulton, S., and Spiegel, S., J. Cell Biol., 147 (1999) 545-558. HEK293 cells were seeded at 6×10^5 per well in poly-L-lysine coated 6 well plates. After 24 hours, cells were transfected with 1 μg of vector alone or with vectors containing sphingosine kinase constructs and 6 μl of “Lipofectamine PLUS” reagent plus 4 μl of “Lipofectamine” reagent per well. One to three days after transfection, cells were harvested and lysed by freeze-thawing as described in Kohama, T., Olivera, A., Edsall, L., Nagiec, M. M., Dickson, R., and Spiegel, S., J. Biol. Chem., 273, (1998), 23722-23728. In some experiments, cell lysates were fractionated into cytosol and membrane fractions by centrifugation at 100,000×g for 60 minutes. SPHK activity was determined in the presence of sphingosine, prepared as a complex with 4 mg/ml BSA, and [g-32P] ATP in kinase buffer (Olivera, A. and Spiegel, S. in Methods in Molecular Biology, (Bird, I. M. ed.), (1998), Vol. 105, 233-242, Humana Press, Inc., Totowa, N.J.), containing 200 mM KCl, unless indicated otherwise. 32P-SPP was separated by TLC and quantified with a phosphoimager as previously described.

HEK293 cells [3] = assay: SPHK activity in HEK293 cells transiently transfected with SPHK expression vectors (cytosol and particulate fractions); assay type: cell-based, human; settings: 24 hours after transfection of HEK293 cells
Method: In FIG. 3A, HEK 293 cells were transiently transfected with an empty vector or with mSPHK2 or hSPHK2 expression vectors. After 24 hours, SPHK activity was measured in cytosol (open bars) and particulate fractions (filled bars). The data are means±S.D. Parental and vector-transfected cells had basal SPHK activities of 26 and 37 pmol/min/mg, respectively.
as §1

Molecule	Km [1] [µM]	increase in SPP (HEK293 cells [2]) [fold]	pH of optimal activity (mSPHK2)	increase of in vitro SPHK activity over basal levels (HEK293 cells [3]) [fold]
B1	3.4			
B2		2.2	7.5	20
